Assay results: paper PMC10397247
Blank lines part the entries; values can stand above or below the binder they belong to.

Key:
O7-AA = target: T1, O7-AA; assay: two-hybrid library CCmax;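 further: natural log of median RNA to DNA barcode read ratio; higher means stronger binding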
T1 chain: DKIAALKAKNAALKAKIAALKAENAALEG

O8-AA = target: T2, O8-AA; assay: two-hybrid library CCmax; conditions: mean of both orientations;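 further: natural log of median RNA to DNA barcode read ratio; higher means stronger binding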
T2 chain: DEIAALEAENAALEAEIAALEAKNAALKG

P10-AA = target: T3, P10-AA; assay: two-hybrid library CCmax; conditions: mean of both orientations;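 further: natural log of median RNA to DNA barcode read ratio; higher means stronger binding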
T3 chain: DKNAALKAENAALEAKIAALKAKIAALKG

P9-AA = target: T4, P9-AA; assay: two-hybrid library CCmax; conditions: mean of both orientations;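 further: natural log of median RNA to DNA barcode read ratio; higher means stronger binding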
T4 chain: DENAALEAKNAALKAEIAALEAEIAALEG

P6SC1 = target: T5, P6SC1; assay: two-hybrid library CC1
T5 chain: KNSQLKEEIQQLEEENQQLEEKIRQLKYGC

P6SC2 = target: T6, P6SC2; assay: two-hybrid library CC1; conditions: mean of both orientations
T6 chain: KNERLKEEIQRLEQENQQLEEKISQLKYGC

P6mS = target: T7, P6mS; assay: two-hybrid library CC1; conditions: mean of both orientations
T7 chain: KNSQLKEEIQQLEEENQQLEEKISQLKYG

P7 = target: T8, P7; assay: two-hybrid library CC1; conditions: mean of both orientations
T8 chain: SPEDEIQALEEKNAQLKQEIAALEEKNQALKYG

P7mS = target: T9, P7mS; assay: two-hybrid library CC1; conditions: mean of both orientations
T9 chain: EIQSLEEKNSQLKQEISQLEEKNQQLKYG

P8 = target: T10, P8; assay: two-hybrid library CC1; conditions: mean of both orientations
T10 chain: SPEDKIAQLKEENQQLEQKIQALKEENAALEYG

P8mS = target: T11, P8mS; assay: two-hybrid library CC1; conditions: mean of both orientations
T11 chain: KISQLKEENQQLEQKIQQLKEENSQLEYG

P9 = target: T12, P9; assay: two-hybrid library CC1; conditions: mean of both orientations
T12 chain: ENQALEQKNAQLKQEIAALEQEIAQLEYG

4H3613-bA = target: T13, 4H3613-bA; assay: two-hybrid library CCNG1
T13 chain: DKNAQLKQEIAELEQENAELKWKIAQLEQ

4H3628-bA = target: T14, 4H3628-bA; assay: two-hybrid library CCNG1
T14 chain: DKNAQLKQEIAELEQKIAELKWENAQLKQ

4H3817-bA = target: T15, 4H3817-bA; assay: two-hybrid library CCNG1
T15 chain: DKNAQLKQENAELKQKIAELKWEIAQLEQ

4H3858-bA = target: T16, 4H3858-bA; assay: two-hybrid library CCNG1
T16 chain: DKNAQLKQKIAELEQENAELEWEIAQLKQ

4H3926-bA = target: T17, 4H3926-bA; assay: two-hybrid library CCNG1
T17 chain: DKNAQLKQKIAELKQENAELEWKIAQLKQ

4H3974-bA = target: T18, 4H3974-bA; assay: two-hybrid library CCNG1
T18 chain: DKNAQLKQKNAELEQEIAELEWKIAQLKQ

4H570-bA = target: T19, 4H570-bA; assay: two-hybrid library CCNG1
T19 chain: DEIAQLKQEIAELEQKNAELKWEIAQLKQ

4H591-bA = target: T20, 4H591-bA; assay: two-hybrid library CCNG1
T20 chain: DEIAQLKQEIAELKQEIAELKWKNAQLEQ

4H626-bA = target: T21, 4H626-bA; assay: two-hybrid library CCNG1
T21 chain: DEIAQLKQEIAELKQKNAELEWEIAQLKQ

4H850-bA = target: T22, 4H850-bA; assay: two-hybrid library CCNG1
T22 chain: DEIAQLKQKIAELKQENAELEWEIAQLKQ

4H906-bA = target: T23, 4H906-bA; assay: two-hybrid library CCNG1
T23 chain: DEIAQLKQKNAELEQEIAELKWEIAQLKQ

4H278-AA = target: T24, 4H278-AA; assay: two-hybrid library CCmax
T24 chain: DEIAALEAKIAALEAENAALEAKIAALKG

4H2873-AA = target: T25, 4H2873-AA; assay: two-hybrid library CCmax; conditions: mean of both orientations
T25 chain: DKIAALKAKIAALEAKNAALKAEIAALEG

4H2985-AA = target: T26, 4H2985-AA; assay: two-hybrid library CCmax; conditions: mean of both orientations
T26 chain: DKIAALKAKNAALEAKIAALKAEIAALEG

4H3134-AA = target: T27, 4H3134-AA; assay: two-hybrid library CCmax; conditions: mean of both orientations
T27 chain: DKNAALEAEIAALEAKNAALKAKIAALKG

4H3409-AA = target: T28, 4H3409-AA; assay: two-hybrid library CCmax; conditions: mean of both orientations
T28 chain: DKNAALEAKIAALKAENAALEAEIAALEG

4H3625-AA = target: T29, 4H3625-AA; assay: two-hybrid library CCmax; conditions: mean of both orientations
T29 chain: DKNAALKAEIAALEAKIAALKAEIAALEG

4H390-AA = target: T30, 4H390-AA; assay: two-hybrid library CCmax; conditions: mean of both orientations
T30 chain: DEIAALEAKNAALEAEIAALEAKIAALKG

4H3940-AA = target: T31, 4H3940-AA; assay: two-hybrid library CCmax; conditions: mean of both orientations
T31 chain: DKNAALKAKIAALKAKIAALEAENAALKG

4H510-AA = target: T32, 4H510-AA; assay: two-hybrid library CCmax; conditions: mean of both orientations
T32 chain: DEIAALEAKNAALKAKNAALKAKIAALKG

4H775-AA = target: T33, 4H775-AA; assay: two-hybrid library CCmax
T33 chain: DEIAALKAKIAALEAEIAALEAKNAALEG

4H816-AA = target: T34, 4H816-AA; assay: two-hybrid library CCmax; conditions: mean of both orientations
T34 chain: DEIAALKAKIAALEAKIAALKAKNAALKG

4H87-AA = target: T35, 4H87-AA; assay: two-hybrid library CCmax; conditions: mean of both orientations
T35 chain: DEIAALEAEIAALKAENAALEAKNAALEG

4H3497-bN = target: T36, 4H3497-bN; assay: two-hybrid library CCNG1
T36 chain: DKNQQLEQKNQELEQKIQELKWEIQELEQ

4H3613-bN = target: T37, 4H3613-bN; assay: two-hybrid library CCNG1
T37 chain: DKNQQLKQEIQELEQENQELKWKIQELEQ

4H3628-bN = target: T38, 4H3628-bN; assay: two-hybrid library CCNG1
T38 chain: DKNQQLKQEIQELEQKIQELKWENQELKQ

4H3926-bN = target: T39, 4H3926-bN; assay: two-hybrid library CCNG1
T39 chain: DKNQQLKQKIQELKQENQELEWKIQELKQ

4H591-bN = target: T40, 4H591-bN; assay: two-hybrid library CCNG1
T40 chain: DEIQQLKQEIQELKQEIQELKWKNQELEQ

4H626-bN = target: T41, 4H626-bN; assay: two-hybrid library CCNG1
T41 chain: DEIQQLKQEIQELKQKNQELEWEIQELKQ

4H906-bN = target: T42, 4H906-bN; assay: two-hybrid library CCNG1
T42 chain: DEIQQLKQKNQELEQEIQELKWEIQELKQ

4H3638-bN = target: T43, 4H3638-bN; assay: two-hybrid library CCNG1
T43 chain: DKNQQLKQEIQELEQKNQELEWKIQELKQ

4H3817-bN = target: T44, 4H3817-bN; assay: two-hybrid library CCNG1
T44 chain: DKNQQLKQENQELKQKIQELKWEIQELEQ

4H3974-bN = target: T45, 4H3974-bN; assay: two-hybrid library CCNG1
T45 chain: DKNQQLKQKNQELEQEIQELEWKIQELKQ

4H570-bN = target: T46, 4H570-bN; assay: two-hybrid library CCNG1
T46 chain: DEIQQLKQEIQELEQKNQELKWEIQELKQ

4H584-bN = target: T47, 4H584-bN; assay: two-hybrid library CCNG1
T47 chain: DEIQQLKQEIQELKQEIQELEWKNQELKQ

4H619-bN = target: T48, 4H619-bN; assay: two-hybrid library CCNG1
T48 chain: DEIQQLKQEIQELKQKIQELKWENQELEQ

4H850-bN = target: T49, 4H850-bN; assay: two-hybrid library CCNG1
T49 chain: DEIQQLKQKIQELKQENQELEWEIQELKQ

4H953-bH = target: T50, 4H953-bH; assay: two-hybrid library CCNG1
T50 chain: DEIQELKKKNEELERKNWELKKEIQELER

4H584-bA = target: T51, 4H584-bA; assay: two-hybrid library CCNG1
T51 chain: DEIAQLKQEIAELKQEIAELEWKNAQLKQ

4H619-bA = target: T52, 4H619-bA; assay: two-hybrid library CCNG1
T52 chain: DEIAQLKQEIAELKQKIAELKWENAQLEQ

4H3631-bA = target: T53, 4H3631-bA; assay: two-hybrid library CCNG1
T53 chain: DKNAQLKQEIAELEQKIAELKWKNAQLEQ

4H3638-bA = target: T54, 4H3638-bA; assay: two-hybrid library CCNG1
T54 chain: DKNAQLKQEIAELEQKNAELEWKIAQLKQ

- interaction score (O7-AA): -1.65
- interaction score (O8-AA): 2.12
- interaction score (P10-AA): -1.18
- interaction score (P9-AA): -1.37
Binder: DKIAALKAKNAALKAKIAALKAENAALEG [O7-AA]

- interaction score (4H3638-bN): 0.732
- interaction score (4H3817-bN): -0.442
- interaction score (4H3974-bN): -0.469
- interaction score (4H570-bN): 0.408
- interaction score (4H584-bN): 0.234
- interaction score (4H619-bN): -1.26
- interaction score (4H850-bN): 0.801
- interaction score (4H906-bN): -0.17
- interaction score (4H953-bH): -2.56
Binder: DKNQQLKQEIQELEQKNQELEWKIQELKQ [4H3638-bN]

- interaction score (4H3817-bA): -0.506
- interaction score (4H3858-bA): -1.18
- interaction score (4H3974-bA): 1.27
- interaction score (4H570-bA): -1.2
- interaction score (4H584-bA): -1.24
- interaction score (4H619-bA): -1.25
- interaction score (4H850-bA): -0.849
- interaction score (4H906-bA): -0.916
Binder: DKNAQLKQENAELKQKIAELKWEIAQLEQ [4H3817-bA]

- interaction score (4H3631-bA): 0.816
- interaction score (4H3638-bA): -0.00348
- interaction score (4H3817-bA): 0.452
- interaction score (4H3974-bA): 0.937
- interaction score (4H570-bA): -0.919
- interaction score (4H584-bA): 0.0123
- interaction score (4H619-bA): -0.0328
- interaction score (4H850-bA): -0.369
- interaction score (4H906-bA): -0.872
Binder: DKNAQLKQEIAELEQKIAELKWKNAQLEQ [4H3631-bA]

The next lines start with the binder.

Binder: KNSQLKEEIQQLEEENQQLEEKIRQLKYGC [P6SC1]
- interaction score (P6SC1): -2.56
- interaction score (P6SC2): -2.43
- interaction score (P6mS): -2.87
- interaction score (P7): -0.456
- interaction score (P7mS): -2.22
- interaction score (P8): -2.12
- interaction score (P8mS): -2.55
- interaction score (P9): -1.54

Binder: DKNAQLKQEIAELEQENAELKWKIAQLEQ [4H3613-bA]
- interaction score (4H3613-bA): -0.128
- interaction score (4H3628-bA): -0.292
- interaction score (4H3817-bA): -0.898
- interaction score (4H3858-bA): -0.117
- interaction score (4H3926-bA): 2.15
- interaction score (4H3974-bA): -0.83
- interaction score (4H570-bA): -0.148
- interaction score (4H591-bA): -0.523
- interaction score (4H626-bA): -0.846
- interaction score (4H850-bA): 0.586
- interaction score (4H906-bA): -0.971

Binder: DEIAALEAKIAALEAENAALEAKIAALKG [4H278-AA]
- interaction score (4H278-AA): 1.38
- interaction score (4H2873-AA): 1.66
- interaction score (4H2985-AA): 1.94
- interaction score (4H3134-AA): 1.9
- interaction score (4H3409-AA): 0.702
- interaction score (4H3625-AA): 1.32
- interaction score (4H390-AA): 1.6
- interaction score (4H3940-AA): 0.936
- interaction score (4H510-AA): 1.09
- interaction score (4H775-AA): -1.16
- interaction score (4H816-AA): 0.427
- interaction score (4H87-AA): -1.44

Binder: DKNQQLEQKNQELEQKIQELKWEIQELEQ [4H3497-bN]
- interaction score (4H3497-bN): -1.39
- interaction score (4H3613-bN): -1.36
- interaction score (4H3628-bN): -0.414
- interaction score (4H3926-bN): -1.9
- interaction score (4H591-bN): -0.818
- interaction score (4H626-bN): -2.23
- interaction score (4H906-bN): -0.915
